Consider four proteins from patent US20060084085.

In series [1] the target is acetylated Ku70-K331 peptide.
Series [2] deals with T1, acetylated Ku70 K542 peptide PEGKVTK-AcRKHDNC.
T1 chain: PEGKVTKRKHDNC

For series [3], the target named is T2, acetylated Ku70 K539 peptide DYNPEGK-AcVTKRKC.
T2 chain: DYNPEGKVTKRKC

Series [4] deals with recombinant Ku70/80 complex, P13010.
Series [5] addresses T3, peptide 29 variant that retained K542 (KRRR).
T3 chain: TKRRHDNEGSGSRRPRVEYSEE

For series [6], the target named is T4, Ku70 peptide 16 (amino acids 325-341).
T4 chain: RQIILEKEETEELKRFD

Series [7] has as its target T5, Ku70 peptide 29 (amino acids 541-562).
T5 chain: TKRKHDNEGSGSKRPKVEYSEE

The target in series [8] is T6, peptide 29 variant that retained K553 (RRKR).
T6 chain: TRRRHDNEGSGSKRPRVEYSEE

Series [9] addresses T7, Ku70 peptide 15 (amino acids 310-322).
T7 chain: LLLPSDTKRSQIY

Series [10] deals with T8, Ku70 peptide 8 (amino acids 157-173).
T8 chain: VQFKMSHKRIMLFTNED

The target of series [11] is T9, Ku70 peptide 3 (amino acids 44-58).
T9 chain: ASKAMFESQSEDELT

recombinant Ku70/80 complex, P13010, sequence (chain, as listed by the source, chain 1 of 2): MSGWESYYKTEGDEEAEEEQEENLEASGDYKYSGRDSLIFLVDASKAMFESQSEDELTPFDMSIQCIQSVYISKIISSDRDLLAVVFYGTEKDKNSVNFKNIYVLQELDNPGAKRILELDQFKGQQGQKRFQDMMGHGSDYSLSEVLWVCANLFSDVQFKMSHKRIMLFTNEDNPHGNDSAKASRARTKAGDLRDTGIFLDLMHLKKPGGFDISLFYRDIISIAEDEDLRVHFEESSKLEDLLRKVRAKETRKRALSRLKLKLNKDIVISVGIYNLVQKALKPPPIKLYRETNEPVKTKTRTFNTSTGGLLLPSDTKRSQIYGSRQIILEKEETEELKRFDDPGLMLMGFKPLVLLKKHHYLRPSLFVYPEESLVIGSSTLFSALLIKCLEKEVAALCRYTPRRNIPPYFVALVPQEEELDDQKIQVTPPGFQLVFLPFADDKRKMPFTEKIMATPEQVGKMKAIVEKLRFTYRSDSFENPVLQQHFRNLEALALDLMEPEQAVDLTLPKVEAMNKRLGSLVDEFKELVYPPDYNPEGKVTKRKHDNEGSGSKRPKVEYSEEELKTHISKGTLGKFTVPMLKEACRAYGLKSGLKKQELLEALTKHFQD
recombinant Ku70/80 complex, P13010, sequence (P13010 whole entry, chain 2 of 2): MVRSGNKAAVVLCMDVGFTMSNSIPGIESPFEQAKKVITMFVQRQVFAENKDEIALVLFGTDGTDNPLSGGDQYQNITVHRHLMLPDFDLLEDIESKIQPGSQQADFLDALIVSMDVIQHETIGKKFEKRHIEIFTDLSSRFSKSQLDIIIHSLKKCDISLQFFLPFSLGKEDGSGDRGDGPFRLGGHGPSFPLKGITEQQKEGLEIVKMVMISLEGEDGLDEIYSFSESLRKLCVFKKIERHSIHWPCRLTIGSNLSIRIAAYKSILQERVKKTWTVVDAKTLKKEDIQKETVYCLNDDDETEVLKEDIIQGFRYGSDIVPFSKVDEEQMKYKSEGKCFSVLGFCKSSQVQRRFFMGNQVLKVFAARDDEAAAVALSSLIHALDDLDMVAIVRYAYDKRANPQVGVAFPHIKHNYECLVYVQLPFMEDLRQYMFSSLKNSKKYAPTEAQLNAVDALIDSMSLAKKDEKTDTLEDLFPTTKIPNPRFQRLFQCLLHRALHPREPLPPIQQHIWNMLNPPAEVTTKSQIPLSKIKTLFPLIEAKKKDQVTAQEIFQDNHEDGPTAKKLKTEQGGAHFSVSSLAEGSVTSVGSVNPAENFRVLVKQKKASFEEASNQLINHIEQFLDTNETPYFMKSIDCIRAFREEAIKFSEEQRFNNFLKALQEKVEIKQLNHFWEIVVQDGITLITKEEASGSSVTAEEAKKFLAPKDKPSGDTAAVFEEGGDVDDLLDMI

B1: human SIRT1 (protein)
chain: MADEAALALQPGGSPSAAGADREAASSPAGEPLRKRPRRDGPGLERSPGEPGGAAPEREVPAAARGCPGAAAAALWREAEAEAAAAGGEQEAQATAAAGEGDNGPGLQGPSREPPLADNLYDEDDDDEGEEEEEAAAAAIGYRDNLLFGDEIITNGFHSCESDEEDRASHASSSDWTPRPRIGPYTFVQQHLMIGTDPRTILKDLLPETIPPPELDDMTLWQIVINILSEPPKRKKRKDINTIEDAVKLLQECKKIIVLTGAGVSVSCGIPDFRSRDGIYARLAVDFPDLPDPQAMFDIEYFRKDPRPFFKFAKEIYPGQFQPSLCHKFIALSDKEGKLLRNYTQNIDTLEQVAGIQRIIQCHGSFATASCLICKYKVDCEAVRGDIFNQVVPRCPRCPADEPLAIMKPEIVFFGENLPEQFHRAMKYDKDEVDLLIVIGSSLKVRPVALIPSSIPHEVPQILINREPLPHLHFDVELLGDCDVIINELCHRLGGEYAKLCCNPVKLSEITEKPPRTQKELAYLSELPPTPLHVSEDSSSPERTSPPDSSVIVTLLDQAAKSNDDLDVSESKGCMEEKPQEVQTSRNVESIAEQMENPDLKNVGSSTGEKNERTSVAGTVRKCWPNRVAKEQISRRLDGNQYLFLPPNRYIFHGAEVYSDSEDDVLSSSSCGSNSDSGTCQSPSLEEPMEDESEIEEFYNGLEDEPDVPERAGGAGFGTDGDDQEAINEAISVKQEVTDMNYPSNKS
B1: in series [1], the “deacetylation of acetylated Ku70 peptide by SIRT1” value was “this residue is acetylated in vivo, but is both a poor substrate of SIRT1 (FIG. 8D) and plays no apparent role in Bax-mediated apoptosis in vivo”. Besides, the “deacetylation of acetylated Ku70 peptide by recombinant SIRT1 (slot blot with pan-acetyl-lysine antibody; fluorogenic peptide assay)” value in series [2] and in series [3] was “SIRT1 efficiently deacetylated the two lysines in the C-terminus of Ku70 that are critical for regulating Bax” in each case.

B2: recombinant histone acetyltransferase (HAT) domain of CBP (protein)
chain: LEALYRQDPESLPFRQPVDPQLLGIPDYFDIVKNPMDLSTIKRKLDTGQYQEPWQYVDDVWLMFNNAWLYNRKTSRVYKFCSKLAEVFEQEIDPVMQSLGYCCGRKYEFSPQTLCCYGKQLCTIPRDAAYYSYQNRYHFCEKCFTEIQGENVTLGDDPSQPQTTISKDQFEKKKNDTLDPEPFVDCKECGRKMHQICVLHYDIIWPSGFVCDNCLKKTGRPRKENKFSAKRLQTTRLGNHLEDRVNKFLRRQNHPEAGEVFVRVVASSDKTVEVKPGMKSRFVDSGEMSESFPYRTKALFAFEEIDGVDVCFFGMHVQEYGSDCPPPNTRRVYISYLDSIHFFRPRCLRTAVYHEILIGYLEYVKKLGYVTGHIWACPPSEGDDYIFHCHPPDQKIPKPKRLQEWYKKMLDKAFAERIIHDYKDIFKQATEDRLTSAKELPYFEGDFWPNVLEESIKELEQEEEERKKEESTAASETTEGSQGDSKNAKKKNNKKTNKNKSSISRANKKKPSMPNVSNDLSQKLYATMEKHKEVFFVIHLHAGPVINTLPPIVDPDPLLSCDLMDGRDAFLTLARDKHWEFSSLRRSKWSTLCMLVELHTQGQDRFVYTCNECKHHVETRWHCTVCEDYDLCINCYNTKSHAHKMVKWGLGLDDEGSSQGE
Turning to B2, the “in vitro acetylation (3H-acetyl-CoA, SDS-PAGE, autoradiography)” value in series [4] is “a strongly labeled band corresponding to the size of Ku70 was observed in each of the complete acetyltransferase reactions; Based on the intensity of the bands, CBP has the strongest preference for Ku70”. The “in vitro acetylation of peptide 29 variants” value in series [5] was “the peptide that retained K542 (KRRR) was the preferred target of both PCAF and CBP and was acetylated to almost the same extent as the original peptide 29 (KKKK)”; in series [8], “K553 (RRKR) was also weakly acetylated by PCAF and CBP”. For the same protein, the “in vitro acetylation of Ku70 peptides” value is “only two (16 and 29) were strongly acetylated by both PCAF and CBP” in series [6]; “only two (16 and 29) were strongly acetylated by both PCAF and CBP” in series [7].

B3: recombinant histone acetyltransferase (HAT) domain of p300 (protein)
chain: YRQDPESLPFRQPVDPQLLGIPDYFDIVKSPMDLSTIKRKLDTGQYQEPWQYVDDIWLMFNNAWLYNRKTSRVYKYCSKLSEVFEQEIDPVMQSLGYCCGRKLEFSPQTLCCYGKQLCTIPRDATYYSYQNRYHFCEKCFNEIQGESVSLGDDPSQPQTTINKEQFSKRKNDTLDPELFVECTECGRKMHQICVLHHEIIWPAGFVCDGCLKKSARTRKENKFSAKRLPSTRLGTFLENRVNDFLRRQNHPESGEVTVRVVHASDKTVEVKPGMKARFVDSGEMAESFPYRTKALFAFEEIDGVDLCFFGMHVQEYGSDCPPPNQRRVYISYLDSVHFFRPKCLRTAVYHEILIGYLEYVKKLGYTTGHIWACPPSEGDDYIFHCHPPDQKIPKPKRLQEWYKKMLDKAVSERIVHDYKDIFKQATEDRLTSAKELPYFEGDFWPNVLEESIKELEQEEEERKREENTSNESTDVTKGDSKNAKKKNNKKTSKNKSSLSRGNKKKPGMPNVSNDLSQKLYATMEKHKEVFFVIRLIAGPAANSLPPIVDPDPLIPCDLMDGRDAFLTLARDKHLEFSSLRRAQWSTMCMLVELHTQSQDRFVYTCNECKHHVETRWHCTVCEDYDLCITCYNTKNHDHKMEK
With B3, the “in vitro acetylation (3H-acetyl-CoA, SDS-PAGE, autoradiography)” value in series [4] is “a strongly labeled band corresponding to the size of Ku70 was observed in each of the complete acetyltransferase reactions”.

B4: recombinant histone acetyltransferase (HAT) domain of PCAF (protein)
chain: MLEEEVYSQNSPIWDQDFLSASSRTSQLGIQTVINPPPVAGTISYNSTSSSLEQPNAGSSSPACKASSGLEANPGEKRKMTDSHVLEEAKKPRVMGDIPMELINEVMSTITDPAAMLGPETNFLSAHSARDEAARLEERRGVIEFHVVGNSLNQKPNKKILMWLVGLQNVFSHQLPRMPKEYITRLVFDPKHKTLALIKDGRVIGGICFRMFPSQGFTEIVFCAVTSNEQVKGYGTHLMNHLKEYHIKHDILNFLTYADEYAIGYFKKQGFSKEIKIPKTKYVGYIKDYEGATLMGCELNPRIPYTEFSVIIKKQKEIIKKLIERKQAQIRKVYPGLSCFKDGVRQIPIESIPGIRETGWKPSGKEKSKEPRDPDQLYSTLKSILQQVKSHQSAWPFMEPVKRTEAPGYYEVIRFPMDLKTMSERLKNRYYVSKKLFMADLQRVFTNCKEYNPPESEYYKCANILEKFFFSKIKEAGLIDK
Take B4: in series [4], the “in vitro acetylation (3H-acetyl-CoA, SDS-PAGE, autoradiography)” value was “a strongly labeled band corresponding to the size of Ku70 was observed in each of the complete acetyltransferase reactions”. The “Relative Intensity of Acetylation” value in series [9] was “+++”; in series [6] it was “+++”; in series [10], “++”; in series [11], “+”; in series [7], “+++++”. For the same protein, the “in vitro acetylation of peptide 29 variants” value in series [5] was “the peptide that retained K542 (KRRR) was the preferred target of both PCAF and CBP and was acetylated to almost the same extent as the original peptide 29 (KKKK)”; in series [8] it was “K553 (RRKR) was also weakly acetylated by PCAF and CBP”.
